Ends that are not written are not given here.
B4: His-Lnp ΔUb (Lnp lacking the N-terminal ubiquitin ligase domain) (domain or fragment, human, UniProt Q9C0E8 46-428, looked up)
chain: LILYSSVLYLFTCLIVYLWYLPDEFTARLAMTLPFFAFPLIIWSIRTVIIFFFSKRTERNNEALDDLKSQRKKILEEVMEKETYKTAKLILERFDPDSKKAKECEPPSAGAAVTARPGQEIRQRTAAQRNLSPTPASPNQGPPPQVPVSPGPPKDSSAPGGPPERTVTPALSSNVLPRHLGSPATSVPGMGLHPPGPPLARPILPRERGALDRIVEYLVGDGPQNRYALICQQCFSHNGMALKEEFEYIAFRCAYCFFLNPARKTRPQAPRLPEFSFEKRQVVEGSSSVGPLPSGSVLSSDNQFNEESLEHDVLDDNTEQTDDKIPATEQTNQVIEKASDSEEPEEKQETENEEASVIETNSTVPGADSIPDPELSGESLTAE
notes: lunapark (Lnp), human, lacking Lnp Ub (the N-terminal cytoplasmic domain, 1–45 aa), in pET28a(+); The start 46 follows from the printed limits of Lnp Ub (1–45 aa); source: E. coli BL21 (DE3), purified (Ni-agarose)

Legend:
[1] = biological target: the molecule itself; test: sucrose density gradient ultracentrifugation; His-Lnp (0.6 nmol) alone or incubated with MBP-CAND1 (2 nmol) in buffer H (20 mM Tris-HCl pH 7.5, 150 mM NaCl, 1% Triton X-100), 10–40% (w/v) sucrose gradient, 200,000 x g, 4 °C, 20 h; 17 fractions, CBB staining
MBP-fused CAND1 [2] = biological target: T1, MBP-fused CAND1 (human, UniProt Q86VP6 1-1230); test: as above; conditions: both partners purified
T1 construct: Cullin-associated and neddylation-dissociated 1 (CAND1), human; cDNA bought from the Kazusa DNA Research Institute, in pMAL-C2; also called MBP-CAND1; source: E. coli Rosetta-Gami, purified (amylose resin, eluted with maltose)
T1 sequence (looked up): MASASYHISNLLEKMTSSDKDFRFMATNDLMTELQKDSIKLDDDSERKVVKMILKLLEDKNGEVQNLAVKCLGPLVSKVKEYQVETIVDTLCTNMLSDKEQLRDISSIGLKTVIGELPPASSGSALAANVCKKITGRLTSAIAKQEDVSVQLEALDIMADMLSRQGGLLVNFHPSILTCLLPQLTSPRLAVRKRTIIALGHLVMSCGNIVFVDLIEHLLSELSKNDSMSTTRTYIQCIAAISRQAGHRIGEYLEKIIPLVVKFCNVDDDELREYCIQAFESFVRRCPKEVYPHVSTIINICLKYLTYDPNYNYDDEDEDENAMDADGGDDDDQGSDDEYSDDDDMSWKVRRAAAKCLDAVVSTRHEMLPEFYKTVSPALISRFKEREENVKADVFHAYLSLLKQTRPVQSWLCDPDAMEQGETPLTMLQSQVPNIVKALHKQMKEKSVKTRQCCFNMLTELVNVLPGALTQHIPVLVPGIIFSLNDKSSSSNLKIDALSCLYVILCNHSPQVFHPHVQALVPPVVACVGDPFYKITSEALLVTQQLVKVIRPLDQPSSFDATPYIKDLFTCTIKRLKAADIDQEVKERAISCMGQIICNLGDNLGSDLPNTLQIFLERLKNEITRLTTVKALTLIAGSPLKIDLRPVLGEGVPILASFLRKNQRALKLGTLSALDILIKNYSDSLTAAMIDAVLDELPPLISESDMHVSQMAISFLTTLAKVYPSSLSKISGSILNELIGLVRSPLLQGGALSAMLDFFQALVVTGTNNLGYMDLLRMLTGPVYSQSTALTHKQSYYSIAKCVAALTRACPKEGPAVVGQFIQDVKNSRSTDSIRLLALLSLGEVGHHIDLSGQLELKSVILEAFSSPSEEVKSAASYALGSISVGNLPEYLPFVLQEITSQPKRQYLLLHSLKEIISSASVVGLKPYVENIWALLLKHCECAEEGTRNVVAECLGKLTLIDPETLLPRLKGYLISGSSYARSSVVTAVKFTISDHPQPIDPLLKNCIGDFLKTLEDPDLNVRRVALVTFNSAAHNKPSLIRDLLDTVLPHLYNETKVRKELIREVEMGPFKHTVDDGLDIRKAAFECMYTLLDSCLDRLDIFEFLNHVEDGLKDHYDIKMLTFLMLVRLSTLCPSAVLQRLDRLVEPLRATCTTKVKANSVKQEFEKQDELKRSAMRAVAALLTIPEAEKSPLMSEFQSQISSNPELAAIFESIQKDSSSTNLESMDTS

MBP-fused CAND1 [3] = biological target: T1, MBP-fused CAND1; test: pull-down; GST-Lnp or GST-Lnp Ub (0.6 nmol) immobilised on glutathione Sepharose, incubated with MBP-CAND1 (6 nmol) in buffer A with 1% Triton X-100, 4 °C 2 h; CBB staining; conditions: both partners purified
[4] = biological target: B4; test: pull-down; His-Lnp ΔUb (0.6 nmol) immobilised on Ni-agarose, incubated with GST-Lnp Ub (3 nmol) or GST alone, or with GST-Lnp Ub (1.2 nmol) and MBP-CAND1 or MBP alone (6 nmol), in buffer G with 20 mM imidazole and 1 mM DTT, 4 °C 2 h; CBB staining; conditions: both partners purified
MBP-fused CAND1 [5] = biological target: T1, MBP-fused CAND1; test: pull-down; His-Lnp WT or deletion mutants (0.5 nmol) immobilised on Ni-agarose, incubated with MBP-CAND1 or MBP alone (3 nmol) in buffer G with 10 mM imidazole, 4 °C 2 h; CBB staining; conditions: both partners purified

B1: hexa histidine-tagged Lnp, wild type (natural protein, human, UniProt Q9C0E8 1-428, looked up)
chain: MGGLFSRWRTKPSTVEVLESIDKEIQALEEFREKNQRLQKLWVGRLILYSSVLYLFTCLIVYLWYLPDEFTARLAMTLPFFAFPLIIWSIRTVIIFFFSKRTERNNEALDDLKSQRKKILEEVMEKETYKTAKLILERFDPDSKKAKECEPPSAGAAVTARPGQEIRQRTAAQRNLSPTPASPNQGPPPQVPVSPGPPKDSSAPGGPPERTVTPALSSNVLPRHLGSPATSVPGMGLHPPGPPLARPILPRERGALDRIVEYLVGDGPQNRYALICQQCFSHNGMALKEEFEYIAFRCAYCFFLNPARKTRPQAPRLPEFSFEKRQVVEGSSSVGPLPSGSVLSSDNQFNEESLEHDVLDDNTEQTDDKIPATEQTNQVIEKASDSEEPEEKQETENEEASVIETNSTVPGADSIPDPELSGESLTAE
notes: lunapark (Lnp), human; cDNA amplified from a human cDNA library, in pET28a(+); also called His-Lnp; His-Lnp WT; source: E. coli BL21 (DE3), purified (Ni-agarose)
binding result [1]: binds
binding result (MBP-fused CAND1 [2]): binds

B2: GST-fused Lnp (lunapark) (natural protein, human, UniProt Q9C0E8 1-428, looked up)
chain: MGGLFSRWRTKPSTVEVLESIDKEIQALEEFREKNQRLQKLWVGRLILYSSVLYLFTCLIVYLWYLPDEFTARLAMTLPFFAFPLIIWSIRTVIIFFFSKRTERNNEALDDLKSQRKKILEEVMEKETYKTAKLILERFDPDSKKAKECEPPSAGAAVTARPGQEIRQRTAAQRNLSPTPASPNQGPPPQVPVSPGPPKDSSAPGGPPERTVTPALSSNVLPRHLGSPATSVPGMGLHPPGPPLARPILPRERGALDRIVEYLVGDGPQNRYALICQQCFSHNGMALKEEFEYIAFRCAYCFFLNPARKTRPQAPRLPEFSFEKRQVVEGSSSVGPLPSGSVLSSDNQFNEESLEHDVLDDNTEQTDDKIPATEQTNQVIEKASDSEEPEEKQETENEEASVIETNSTVPGADSIPDPELSGESLTAE
notes: lunapark (Lnp), human; cDNA amplified from a human cDNA library, in pGEX-6P-1; the same cDNA was subcloned into all vectors; also called GST-Lnp; GST-Lnp WT; source: E. coli BL21 (DE3), purified (glutathione Sepharose)
binding result (MBP-fused CAND1 [3]): binds

B3: GST-Lnp Ub (N-terminal ubiquitin ligase domain of Lnp) (domain or fragment, human, UniProt Q9C0E8 1-45, looked up)
chain: {GST}-MGGLFSRWRTKPSTVEVLESIDKEIQALEEFREKNQRLQKLWVGR
notes: lunapark (Lnp), human, N-terminal cytoplasmic domain (1–45 aa, Ub), in pGEX-6P-1; source: E. coli BL21 (DE3), purified (glutathione Sepharose, eluted with glutathione)
binding result [4]: binds

B4
binding result (MBP-fused CAND1 [5]): binds

B5: His-Lnp ΔZn + LNPARK (Lnp lacking the zinc finger motif and the following LNPARK amino acids) (natural protein, human, UniProt Q9C0E8 1-428, looked up)
chain: MGGLFSRWRTKPSTVEVLESIDKEIQALEEFREKNQRLQKLWVGRLILYSSVLYLFTCLIVYLWYLPDEFTARLAMTLPFFAFPLIIWSIRTVIIFFFSKRTERNNEALDDLKSQRKKILEEVMEKETYKTAKLILERFDPDSKKAKECEPPSAGAAVTARPGQEIRQRTAAQRNLSPTPASPNQGPPPQVPVSPGPPKDSSAPGGPPERTVTPALSSNVLPRHLGSPATSVPGMGLHPPGPPLARPILPRERGALDRIVEYLVGDGPQNRYALTRPQAPRLPEFSFEKRQVVEGSSSVGPLPSGSVLSSDNQFNEESLEHDVLDDNTEQTDDKIPATEQTNQVIEKASDSEEPEEKQETENEEASVIETNSTVPGADSIPDPELSGESLTAE
notes: lunapark (Lnp), human, lacking the zinc finger motif and the following LNPARK amino acids (275–309 aa), in pET28a(+); source: E. coli BL21 (DE3), purified (Ni-agarose)
binding result (MBP-fused CAND1 [5]): binds

B6: His-Lnp ΔCC (Lnp lacking the coiled-coil domain) (natural protein, human, UniProt Q9C0E8 1-428, looked up)
chain: MGGLFSRWRTKPSTVEVLESIDKEIQALEEFREKNQRLQKLWVGRLILYSSVLYLFTCLIVYLWYLPDEFTARLAMTLPFFAFPLIIWSIRTVIIFFFSKKAKECEPPSAGAAVTARPGQEIRQRTAAQRNLSPTPASPNQGPPPQVPVSPGPPKDSSAPGGPPERTVTPALSSNVLPRHLGSPATSVPGMGLHPPGPPLARPILPRERGALDRIVEYLVGDGPQNRYALICQQCFSHNGMALKEEFEYIAFRCAYCFFLNPARKTRPQAPRLPEFSFEKRQVVEGSSSVGPLPSGSVLSSDNQFNEESLEHDVLDDNTEQTDDKIPATEQTNQVIEKASDSEEPEEKQETENEEASVIETNSTVPGADSIPDPELSGESLTAE
notes: lunapark (Lnp), human, lacking the coiled-coil domain (100–143 aa), in pET28a(+); source: E. coli BL21 (DE3), purified (Ni-agarose)
binding result (MBP-fused CAND1 [5]): binds

B7: His-Lnp ΔTM (transmembrane domains replaced by a (GGS)3 linker) (natural protein, human)
chain: MGGLFSRWRTKPSTVEVLESIDKEIQALEEFREKNQRLQKLWVGGGSGGSGGSRTERNNEALDDLKSQRKKILEEVMEKETYKTAKLILERFDPDSKKAKECEPPSAGAAVTARPGQEIRQRTAAQRNLSPTPASPNQGPPPQVPVSPGPPKDSSAPGGPPERTVTPALSSNVLPRHLGSPATSVPGMGLHPPGPPLARPILPRERGALDRIVEYLVGDGPQNRYALICQQCFSHNGMALKEEFEYIAFRCAYCFFLNPARKTRPQAPRLPEFSFEKRQVVEGSSSVGPLPSGSVLSSDNQFNEESLEHDVLDDNTEQTDDKIPATEQTNQVIEKASDSEEPEEKQETENEEASVIETNSTVPGADSIPDPELSGESLTAE
notes: lunapark (Lnp), human, the stretch before the transmembrane domains (45–100 aa); polypeptide linker (GGS)3 in place of residues 45–100; lunapark (Lnp), human, the stretch after the transmembrane domains (45–100 aa); source: E. coli BL21 (DE3), purified (Ni-agarose)
binding result (MBP-fused CAND1 [5]): binds

— article PMC6739345, “CAND1 regulates lunapark for the proper tubular network of the endoplasmic reticulum” (Scientific Reports, 2019)
